Experimental data published in paper PMC4114019.

Biological target: T1, Purified FLAG-IKKε protein, Q14164
T1 chain: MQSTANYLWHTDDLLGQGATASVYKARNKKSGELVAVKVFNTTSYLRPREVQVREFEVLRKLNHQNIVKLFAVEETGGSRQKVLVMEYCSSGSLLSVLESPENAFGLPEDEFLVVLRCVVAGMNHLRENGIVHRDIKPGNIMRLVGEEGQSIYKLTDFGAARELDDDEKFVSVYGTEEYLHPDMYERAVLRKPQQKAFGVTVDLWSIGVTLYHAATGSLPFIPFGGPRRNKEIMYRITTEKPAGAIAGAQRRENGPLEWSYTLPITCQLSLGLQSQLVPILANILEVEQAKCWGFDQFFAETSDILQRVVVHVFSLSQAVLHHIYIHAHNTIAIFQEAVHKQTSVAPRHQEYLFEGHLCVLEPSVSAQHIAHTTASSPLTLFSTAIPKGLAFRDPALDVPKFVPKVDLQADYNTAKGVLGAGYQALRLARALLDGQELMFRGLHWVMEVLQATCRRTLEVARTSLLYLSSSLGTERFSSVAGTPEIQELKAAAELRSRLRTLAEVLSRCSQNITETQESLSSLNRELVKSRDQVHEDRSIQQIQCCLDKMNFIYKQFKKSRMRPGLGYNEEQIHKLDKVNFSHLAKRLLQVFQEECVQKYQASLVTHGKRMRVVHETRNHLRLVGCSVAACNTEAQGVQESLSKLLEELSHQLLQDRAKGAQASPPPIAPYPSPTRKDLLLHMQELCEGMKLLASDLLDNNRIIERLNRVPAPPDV
Experiment: native gel or EMSA
Conditions: remark: other sources report otherwise

stoichiometry N: 2
B1: Purified FLAG-IKKε protein, Q14164 1-716 (enzyme)
chain: T1 chain
